The values that follow come from publication PMC11404848 (2024).

This assay addresses Sensor^BtsK (Stenotrophomonas maltophilia CGMCC …, labelled with the Monolith NT.115 Protein Labeling Kit Red NHS (a dye that reacts with amines)). The assay is described as follows: MST.

B1: BtsD^Δ(SP-GGDEF) (domain or fragment)
chain: APPLRDYAIDVWTSRNGLPHNSLRDIAQTPEGHLWFATWEGLVRYNGLDFTVFDRSTRPGLRDNGIGALLVDRQGGLWISDSRGNVSHRGNDGQWRVWEHQADTPQVLIQSMQMDSQGRLWLLYEGKGIGYLTPDKGIVYQAPAADLPMAMSFTKLVVDAQDRVWVGTLDGLVLRDNDGVLKRAPAAWGLGAGTGLSWPYRAPDGALWIVAGERLYRVEDDQLVLVHRLPGQLHMTSMLQDRHGDLWLGTENQGLLRISAHGLERLPAGLNLPGGRVVSLREDAEGSIWVGANGGLYRLRETLFSSYTERDGLSGDYVRTVLEDRDRQLWVGSASGLDLQTPDGRFRAVPLHNRGGKAPSVLSLAQGPDGDLWVGTFGDGVYRLDRDGSLRHNYAAADGMPGGNIRAISVDPQGRVWAGTQKGVVRIDGDRVQVSTAPGMPGGLITALEHDHQGNLWIGTIEGIRVLRGDHVQSIDLAPMGGGRSVFGFHQLGEAMWISSDRGLYRWRDGKLARVGLEQGMPVDAVFQLVPDRLGNVWISSNRGVLRTDMATLNAVADGRAPRVVVERYNEIDGMANAQANGSSGPSAILRQDGTFWVVTAGGLSTVDPQRLQRFRERPSPPAAIESVQVDGAPVHWEGPDRNYIPGGRRLAVSYVGLSYLMSDRIRYRTRLEGLDAGWVERGPQRSVEFVGLPPGDYTLHVSAAHPGGAWGQQEAVWSFTVEPFWWQRRSVQLLGGLLLLAGLVVLYRLLLQQLKASNLRLARRVDEATFDLQAKTVHLQALNQEKTELAER
For B1, the dissociation constant Kd came out at 3.17 µM.

A word on the Kd: it is the equilibrium constant for the complex coming apart. High values mean lower affinity, low ones higher affinity.
